# According to the supplement of paper PMC9732359:
# ± gives the uncertainty stated by the source.
# Experiment: protein stability index of a GFP-peptide fusion (yeast GPS) (PSI 1-4); higher = more stable; sorted into four equal gates, so the index is relative within each strain
# Procedure, shortened: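 Plasmids isolated from each sorting gate were PCR-amplified and Illumina-sequenced, and barcodes assigned the reads to strains. The gates, four of equal size, were set by GFP/Cherry fluorescence ratio on mid-log cultures in leucine-free medium. These cultures were yeast carrying a pooled library of tiled 17-residue yeast protein peptides fused downstream of GFP on a plasmid that also expresses Cherry. The protein stability index is the sum of every gate's read frequency times its gate number.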
Sequence,protein stability index (doa10∆),protein stability index (pdr5∆),protein stability index (san1∆),protein stability index (ubr1∆)
SSISWKNIAQCLSDYTK [YJL039C/NUP192],2.05 ± 0.08,2.11 ± 0.076,1.87 ± 0.076,2.11 ± 0.058
LVSMRYPEDKKTQQNEK [RPN3],,,3.24 ± 0.039,3.12 ± 0.12
GNLIGVDPFDSDEEESV [SNU114],3.03 ± 0.075,3.14 ± 0.059,3 ± 0.057,3.2 ± 0.054
VQQQQQQQLRNQIQRQQ [SNF5],2.16 ± 0.071,2.5 ± 0.12,2.07 ± 0.2,2.06 ± 0.074
EQNHLDNNYNTAETNNK [YDL088C/ASM4],3 ± 0.056,2.96 ± 0.067,3.02 ± 0.043,2.93 ± 0.065
IYATFLNESDCLEACSF [YDL116W/NUP84],2.56 ± 0.091,2.85 ± 0.087,2.6 ± 0.13,2.59 ± 0.057
MFQSQSQLQPQPQPQPQ [YDL088C/ASM4],2.48 ± 0.056,2.49 ± 0.048,2.29 ± 0.068,2.99 ± 0.04
DDMDIDEVNDRSDISDS [PCI8],3.22 ± 0.12,3.1 ± 0.1,3.26 ± 0.048,3.02 ± 0.085
IFAGAFVFQTVFDTAIT [QCR9],1.61 ± 0.048,1.35 ± 0.033,1.48 ± 0.076,1.67 ± 0.04
ITSFGFGQKGGQAIVVH [FAS2],1.28 ± 0.074,1.44 ± 0.036,1.52 ± 0.088,1.69 ± 0.046
TFPPEVLARISPELSLQ [RRP43],2.32 ± 0.073,2.87 ± 0.11,2.53 ± 0.081,2.67 ± 0.071
ESRSFSPIPFPPLTYKN [PRP8],3.04 ± 0.074,3 ± 0.08,2.6 ± 0.058,2.62 ± 0.047
FASLRVLPDADVKLLHS [YJL039C/NUP192],,2.11 ± 0.1,1.54 ± 0.2,2.14 ± 0.11
TGNNLYDRNSNNNHKDK [SWI1],3.03 ± 0.049,3.12 ± 0.051,2.89 ± 0.06,3.12 ± 0.039
LIAIVSKLLQTTLKLSP [NUT1],2.19 ± 0.042,1.39 ± 0.063,1.31 ± 0.11,1.21 ± 0.066
SQKHNGRILKWLWPLCR [CDC53],1.52 ± 0.063,1.33 ± 0.071,1.35 ± 0.094,1.12 ± 0.04
SKSAPSKKISNTAAALV [YAR002W/NUP60],3.1 ± 0.067,2.97 ± 0.068,3.12 ± 0.041,3.14 ± 0.048
TGLCSFDYSVILNSIPA [YJL039C/NUP192],1.6 ± 0.052,1.51 ± 0.059,1.49 ± 0.095,1.28 ± 0.045
KPSPIDSGIGSNGSGIV [CSL4],3.17 ± 0.06,2.89 ± 0.042,2.94 ± 0.04,3.1 ± 0.046
IRLANESSELNKDSIEE [CSN12],3.22 ± 0.084,3.43 ± 0.079,3.34 ± 0.065,3.37 ± 0.083
TFHDELNLKFKEKWPSL [YML103C/NUP188],3.23 ± 0.095,3.57 ± 0.2,2.81 ± 0.082,3.09 ± 0.098
FVDDMLRDYRFEDATRE [SNF5],2.92 ± 0.096,3 ± 0.095,3.19 ± 0.082,3.35 ± 0.046
PYAIVKGKARLGTLVNQ [RPL8A],2.54 ± 0.1,2.81 ± 0.093,2.74 ± 0.16,2.73 ± 0.073
SDERAKLELINRYAYVL [LRP1],2.55 ± 0.067,3.17 ± 0.16,2.79 ± 0.11,2.93 ± 0.15
LAYENKITDKEDLLHYI [POP4],3.35 ± 0.15,3.31 ± 0.068,3.2 ± 0.068,3.24 ± 0.088
ISPKIWCAGAGTAADTE [PUP1],2.29 ± 0.1,2.36 ± 0.088,2.42 ± 0.12,2.24 ± 0.08
RRTNTPIGRDGKLAKPR [RPB2],3.08 ± 0.1,3.06 ± 0.078,2.76 ± 0.084,2.96 ± 0.1

Sequence,protein stability index (doa10∆),protein stability index (pdr5∆),protein stability index (san1∆),protein stability index (ubr1∆)
PNPTPSMINSVSPTNVM [PGD1],2.21 ± 0.032,2.55 ± 0.037,2.32 ± 0.03,2.27 ± 0.028
IARLYSCISISDIISML [RRI2],1.37 ± 0.061,1.35 ± 0.05,1.24 ± 0.093,1.17 ± 0.029
ITSINVENDTFIERNFT [FAS2],3.01 ± 0.089,2.68 ± 0.081,3.17 ± 0.072,3.19 ± 0.05
QDKEGIPPDQQRLIFAG [RPS31],2.95 ± 0.068,2.8 ± 0.057,3.19 ± 0.035,3.15 ± 0.033
KLTILQEGIEAIATTVI [RET1],2.79 ± 0.069,2.32 ± 0.06,2.51 ± 0.082,2.78 ± 0.037
RQNRRPELGDKFSSRHG [RET1],,3.4 ± 0.3,,2.63 ± 0.21
LEGTRVSLEERTKNLVS [SMC4],3.45 ± 0.09,3.42 ± 0.075,3.34 ± 0.048,3.35 ± 0.08
SLEGCVEMAWIMGFISY [FAS2],1.97 ± 0.084,1.86 ± 0.061,2.35 ± 0.086,2.27 ± 0.078
NVKNYSTTQEILEFITA [RPC34],1.28 ± 0.24,1.45 ± 0.088,1.18 ± 0.18,1.25 ± 0.15
IASAGKDGEIMLWNLAA [ASC1],2.92 ± 0.077,1.66 ± 0.053,3.03 ± 0.054,3.09 ± 0.076
KNGKIYLKHNSIAEEIP [RET1],2.97 ± 0.059,2.81 ± 0.05,2.61 ± 0.074,2.52 ± 0.037
APAVELHGNAKKAAEEA [FAS2],3.42 ± 0.12,3.11 ± 0.14,3.1 ± 0.12,3.3 ± 0.15
QFSESTHNDIDSTAVAL [YJL039C/NUP192],2.76 ± 0.098,2.5 ± 0.2,2.71 ± 0.087,3.16 ± 0.071
IFDGNYGESDIHFREHQ [YMR129W/POM152],3.26 ± 0.11,3.21 ± 0.21,3.58 ± 0.2,3.05 ± 0.15
NATHDEDEFIVQHDQIL [SWP82],2.93 ± 0.036,3.13 ± 0.032,2.96 ± 0.032,3.044 ± 0.023
FICSIIQTVVISLLALP [YML031W/NDC1],1.43 ± 0.11,1.36 ± 0.076,1.34 ± 0.11,2.12 ± 0.11
KITDKEDLLHYIEEKHP [POP4],3.48 ± 0.1,3.3 ± 0.064,3.23 ± 0.057,3.24 ± 0.076
KAAFEDLKSKGLIPADA [FAS1],3 ± 0.09,3.29 ± 0.1,3.14 ± 0.073,3.35 ± 0.066
LEWNMANLLFKKEKLKQ [RPC82],2.13 ± 0.11,1.45 ± 0.049,1.38 ± 0.13,1.37 ± 0.082
VTIREQINIMPSLKAHF [SIR3],2.53 ± 0.077,2.83 ± 0.075,2.85 ± 0.059,2.68 ± 0.043
KCLNYRNVNWIERLTKR [ITC1],2.91 ± 0.084,3.07 ± 0.052,2.96 ± 0.05,3.09 ± 0.038
NTLLQQQNYSKVLLPSI [SWI1],2.07 ± 0.077,2.9 ± 0.11,2.79 ± 0.076,3.09 ± 0.095
ASITGTGSNDRCIGDSD [YMR129W/POM152],3.11 ± 0.083,2.78 ± 0.12,2.35 ± 0.11,2.88 ± 0.1
ELVETSEVRKAVSIETA [FAS2],2.43 ± 0.14,,,1.27 ± 0.27
VQKRDEVKEQLGILKKK [SMC4],2.75 ± 0.095,3.01 ± 0.077,3.24 ± 0.061,2.78 ± 0.05
YEDSGSTYKHDRGIANI [SRB4],3.29 ± 0.13,3.29 ± 0.14,3.25 ± 0.097,3.36 ± 0.096
